{
  "source": "the NTF2 design screens of Basanta et al. (2020)",
  "data": [
    {"assay": "protease stability score; higher = more stable; yeast display proteolysis, trypsin and chymotrypsin;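 further: relative to predicted unfolded state with 0 unfolded-like and 1 meaning tenfold more protease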", "values": [
      {"sequence": "DEDRKIFKLVFEITKHAWETGDEEHLDRLLDPNTRIEIGDKILHGREHIEEWVDRVDHLHLHHFRLDDYRYQGDKAIIHGHVNGTSVIDGRSERYTSTIDFIVLKVNGRWRLHSVRVT", "protease stability score": 1.41},
      {"sequence": "DEMDEVMERWAREYISWEKTGDEEKAKKYVDPNVKTHIDFNGRHVENIGMESEFNFFRELGITIHDIKIREIELQGDKVRIKGRIVFQIGDFEIIIERTVHIVVINGQDRHSEFRFE", "protease stability score": 0.194},
      {"sequence": "DRDQHQAEKAFKLLVDILQTGDEEEIYKMADPHMQIDFDGRLHHGRDEFVKLVSETIRKFKNIRVEIHHIEVFDGRMHTDSRIHVGDKEWTIDIHIQKVNGKWKLKHVRVD", "protease stability score": 0.945},
      {"sequence": "DDELKTTHKFAKEFVDQLTTGDWEWHDKLFDPDARMSMIIDGREVRLHGREELTRWHLKVFEDLGIERVHSRYEHMHVVDGQIHFRGVLEFNGQRREFHIDMRIVDGRMHEFHEIHN", "protease stability score": 0.329},
      {"sequence": "SEDRESAKWFVEMELELFLTGDFEKRLHLADPNAKIRIEINGRKHSTHGMREFLEHLLRLGIDVSHVDHIQVENYNGKLEMNLNLDIRIDGQRRHVEIHIIVDKFDGRWVLRELKVNIR", "protease stability score": 0.642},
      {"sequence": "TEEKEDKDRWYEEVLRAVLTGDFHFLSRLADPDVRVEYGDKEHVGREEVSRFWQEFFERIKNVTIELHDYKVQGDKIHWLINLRFNGREHIVHIELIIIDGRIHEIRVQIR", "protease stability score": 2.02},
      {"sequence": "DEERTLVEELIQIFVEALETGDFETLSKMFDPHALFLQGDKRFVGRKDIEKWIHDLVRRLGVNHIEIDKITVQGEKAHVDTRVHIGDKTSTIHILIVKVNGRWFVEEIRYH", "protease stability score": 1.17},
      {"sequence": "DEMREEVETILKLMEEWEKTGDFETILTYLDPNARLHENINGRELHSHGREFIHWAYEFFKNLRIETVQEDEVHIFENHFQIRVTLKGTINGRHYIFHRIIIINAIDGRIRHEVILYK", "protease stability score": 1.53},
      {"sequence": "TEEDEHLYEYLESLFHHQRTGDEDKYERLLDPHARLDINGVDVIGMERVVHQWHEHWRRYKNMRIHFRHYEIKVFNGRAHLRIEGHMEYGDKKSEVELLFIAIKINGRWVVKQVHITVH", "protease stability score": 1.82},
      {"sequence": "SELEKYSKLMLDLILHSRLTGDEEHHEKLMDPNVRIEIGDKELHGRELAVKWMSHWRLEELRVRHIHNQGDKINVDVEEVETVDGVRIRFRSELIILKVDGQWLNHSIITR", "protease stability score": 1.16},
      {"sequence": "SEEEELFRKLVNLFLRDVLTGDEESLIELMDPDVRVDINGRKNVGWEEVANTWKQMRIRDFEYREVEYYNGQARIHGVRDGNINGVDERTEIEISMSIVDGRLKHVRVHVR", "protease stability score": 2.09},
      {"sequence": "SEDEELVRKATEDFINMHRTGDEDELRKMMDPDDKLRIGDKEVIGREAVITWLMEWLKKMGVNHIRFHRVHLFDGKIHVDGELHIGDKEFEIHIFALKINGRWIRESEEIK", "protease stability score": 1.39},
      {"sequence": "SEDDEWLHNFIERLLHTILTGDEHIFSELADPNVRLDIGDKELHGWHLIVRHYIDEFRQFKGVRVHIRIRRFTQIGDKVHYDGELIFVIGDKTIIRELHLVVVKIDGRWKLEHFEIR", "protease stability score": 2.74},
      {"sequence": "DEATKSAEIAVRLLKKTQDTGNEELERKLVDPHVRVDVNGRESHGWEHLVEIIREMRVHSLTVTRSEVQGNKVFNDGILDGEINGVRVHIYIHIIIEKINGQWVIRELRFH", "protease stability score": 0.803},
      {"sequence": "RKEEDEARKFLHTYIELMRTGDEDNLKEFVDPHVRLEVGDKRVVGWDRYVENVVELIEKVPNLRIHIDSVRAIGNWLHVDGTLIQGDKHREIHLHLQKIDGRWILTHQHVR", "protease stability score": 1.34},
      {"sequence": "DENKKAFEEAVSWFRHTSETGDEELFNDLVDPDTRTNYNGVSYHGWKEYEEYLRLIRELLGIKVVKHVHIHSVDVQGDFIHMDVELNLHYNGRERIERSHIRAFKVNGRWRMKSMIVV", "protease stability score": 0.362},
      {"sequence": "DDEEHSAENFARHFMENLRTGDEDRLHELADPNMQIILHFDGQHEVRHGWESYEYLVRLFGVKHIHINHFEIFYVNGRVHLRIEGHIHQGDKYREVYIHIDINKVNGRWHVESVELRIH", "protease stability score": 0.93},
      {"sequence": "SELEELVKRILKFILHSWDTGDEEFDKHMADPNVRVIYNGVDLHGMHTKDDLIKRLGWEQESRIRSIRAIGEKAHMDVELVWRFDGQQRDHDTRVHLDIVNGRSKNMEIRFK", "protease stability score": 0.165},
      {"sequence": "DEHTKEMKHFLKEWLHNFFTGNEERWAHLADPHVRSDINGVELHGWDLLFRKMRKHREDLGAPHIRDFHIHSMHVINGVIHIDGEIDVDVNGVRIRSRVEIHLNVVNGRNKSEHYHHI", "protease stability score": 0.68},
      {"sequence": "DEDTHMVERALTLLYKTLHTGDEDLYRELIDPHVRVEINGQELIGRELLIEWFREMVERFPNIRIEIHDIRLFDGRLESDSRLHYGDKSREVHLIARKVNGQWRLESLKVE", "protease stability score": 1.41},
      {"sequence": "SEDDEAVSHALHLLSEVLLTGDERTWKRLADPNVKLEFNGREFHGMEEWKRMLDHIRIDHVKIELERSDSIGDKMHTHGRLIVHTTINGVELDRITDVRFIIEKVDGRWKLTSLHIH", "protease stability score": 1.29},
      {"sequence": "EEEEKMARKMIKDIIENFRTGDWDLMETLADPDVRLHFNGRDYHGREEFLKIERTRFEKVPNVRETERNVTWRNFDGRLELEIHTEHIINGVRIHVLLIFTTEKINGRWSMKSIEIHEK", "protease stability score": 0.704},
      {"sequence": "DEDSKHVEHLMRLLIRLLITGDEDTLLNLIDPHARIDINGKEVHGREWAEKFIRRFERDLGVKHNHIEHIELQGDKAHVDFSLRIGDKMIQVHIDIWIVDGKLQSIRIKIK", "protease stability score": 1.54},
      {"sequence": "DERHEHVREMSHRMEEWFETGDEDKWVKNADPNVITDINGQKLHGRENAARFLLHYHNRFKGMRFDIEDVDIQGEKVHIHSVQHFDGVKFDVRLIFEVFDGVIKSMHVEVK", "protease stability score": 0.706},
      {"sequence": "KEEETHAREVSEANEHLLETGDWRRLSHLLDPNAKITINGRHFHGREFFTELQKRHEDMLGIKHRHIEDSTVVGDKVIIHTYYHVDGKTLDIEIIIVVINGRHERVEWRFK", "protease stability score": 0.782},
      {"sequence": "TEEHKFVKDFFIHMIRAWITGDEKELHRLFDPHTKVRIGDYVSHGMERTLEIWHKLWKELGFKHLEVREVRAQGDKSHTDVVYHVDGREKKVHIELEVFNGKATHLELDEK", "protease stability score": 0.519},
      {"sequence": "DEIEDHMREVREQLLRDLTTGDWKKMREMLDPHVRIHIGDFHDHGRESAEEWLRKFKGLTLRIHDVRVKIIDGRALVENDGELTYDGRRHRVRIHVYVTKVDGVWMVETLEIRIH", "protease stability score": 1.15},
      {"sequence": "DEARVIFEEFIRQLLHAIRTGDFDLYRHLADPHVQVEIGDKVFWGREVITEFEDDLLRRMGVNHVDMRIRIFEIIDGRIHIVGEHRIDVNGRDEHIDTRVLVHKVDGRWVLRRERRT", "protease stability score": 0.647},
      {"sequence": "DEDEKYEEHYVEMFLRWLQTGDEDQIERNADPNVRLDVNGRDIIGWENIIEHIRQIKNLRIQIRRVRVVDGRSIVDIRVEVNGKRHEVNLIVIIINGKLKEVKFEFR", "protease stability score": 2.71},
      {"sequence": "TEDERDMHEAMERHLQDLRTGNWEDVHRQVDPNVRLVFNGKEVHGREEYVEHTVRLAERADHIELRIRHIDTQGDKLRVEGELIIRQGDKTFIHEVELLFLKVNGRWIIHSFEIK", "protease stability score": 1.55},
      {"sequence": "DHEDRLAEEIARFIYHYWETGDEEEISDLFDPHVRVEININGKRIEKVGREHFYHWFHYWRERFKNLKINFKRLDPVNGKVHVETRVHQGDKERRMILEFDVVNGRIRVFRMEVHEN", "protease stability score": 2.5},
      {"sequence": "SEDEHQSKLALELLQESSYTGDWKTSQDLMDPHARFVIGDKYVHGMEEVSRMMEEIRIEEIHIRKIHTVGNKIEIKGEIRIRIGDKHTSTEVEWVASKVNGRWLLEELVVH", "protease stability score": 0.511},
      {"sequence": "DLYKHWTDVLLHLFLHVSRTGDEEEVVRLMDPNTLIIINGQEIHGREEIKRTFREMRVDDERLKDMDKIGNKVRVDGEVRITVDGQERTSRAHMVVLKVDGRWTIHSLRIE", "protease stability score": 1.77},
      {"sequence": "SEEEEDARQAFEEYTESLKTGDEDTLDRLLDPDTLLIINGREIHGMEEAIRIWHVWLRHMRFRSQEMRRIRVIDGKIDIESRSIIDINGREVDLRVHYILHKVNGRWLIESVRFE", "protease stability score": 2.38},
      {"sequence": "SDLDQEMKTWLEETIRLLNTGNEEEWTKLADPNARVEIGDKHYHGWESLEELRKIFGVEKIDYRFTRIEVQGEKADSDVRIEVNGRELHVRLIIVVVNGRHKSMRVIFG", "protease stability score": 1.99},
      {"sequence": "DELETYSRRMFQLLLHIMETGDEEKWDHLADPNARLDIDGREFHGREIVSEVHSQIRSELGVDHHQITHFRLHTFDGKVEVEMEVIDKFDGRDVRSRIHIIVIKINGKWFLHEMSYDHG", "protease stability score": 1.35},
      {"sequence": "DHEHRELRELIHRIEKNIRTGNWDVVEKMLDPHARIDIDGKEIHGRDRLVEEMVKQWEKMGVDHIEIKLEDYKVSENEVYLDMIFVIRVGDKVIFIDSHIISRKIDGRWIIHSIHFR", "protease stability score": 1.95},
      {"sequence": "DEHDEHYHRLMKVLVDMMATGDWRTIHELMDPDARSDIDGREVHGREEVIRVIKEFFDKFKGARIEIRLRRWDTINGRIDVRVQLDVNFNGRTEQYDTRIHNVVVDGVSEELTVEVK", "protease stability score": 1.39},
      {"sequence": "DEHHKHLHHLAEHTLRLIATGDEDRFSDLADPHTRLRVNGVDVIGRELVIELWKRMLEQIRITDVHVKRSVVIDGVVHQDTELHSTVGDKRFELKTKSHIFIINGRIHMVEIQHE", "protease stability score": -0.28},
      {"sequence": "SEDHEMAKRIVKQFMEEIFTGDWRDFEELLDPDVRIIIGDKELHGREQFELELRHMRRSIDEMHFTDAKVVGDKMIFDTRMKITIHVNGKELRFTTKSTFFILKVDGVWRIRQITVL", "protease stability score": 2.13},
      {"sequence": "DEDEKEAEHAAKLFSRHFRTGDEDLLREMIDPNVRIRIGDKELHGWEEFTRLMREWRFDDVHVEHIHVQGDKVIVDSILHVIINGRHIDFRSHIYIEKIDGRWVIRSFEIR", "protease stability score": 0.651},
      {"sequence": "SEDHHETQRALELLVTFLRTGDEHTLERLMDPDTRSIIDGVELHGREDMKEVLEWLVKQADHLESVHVRYLNVQGDKAQIHVELRGRFNGKHSIHEVHITTVKINGKWLITEVEFR", "protease stability score": 1.93},
      {"sequence": "EEEEEKQERALRWFLHIIETGNEELLHRLLDPNVQVEIGDKRFHGWKHLLMVFNDLGVKHVELRDFTIINGVIRNEILLRVGDKENLTILILRKVDGKWQLERFNLQ", "protease stability score": 1.79},
      {"sequence": "SEEEQLIRLALEWELHSEETGDEELVRENADPHVRLEINGVEVIGMELAVKILFELKEDMGIKHIELKSVDTQGDKLNIHSKYHVNGRHIDVIIISKKVNGRWRMKRIIVTIR", "protease stability score": 2.46},
      {"sequence": "DELKTDFENAIRLYEHATKTGDEHEIRKLLDPHVRVDINGREHHGMEHYSDLLHEFLKRLGADHIQFEFKDSHLQGNKLHLHGIIHVHVGDKTHTIDSSVIYEKVDGRWIISSVWYR", "protease stability score": 1.01},
      {"sequence": "SEEEELWRLAEETSERIIRTGDFTRLEEMIDPDARMHIDGRTHHGRETISKILLHELTRIKNVKFEIKHKSSQGDWVDIDLILRFDGKTEHIRYYVYKINGQWFLHSIEYH", "protease stability score": 1.19},
      {"sequence": "DEEEIEIRRIWERELHWRSTGDEKSLIELMDPRTIIEINGREIHGREEADRHVHEFAEKYKNVRVRYFVREIEVQGEFVHVHTEITLDFDGVEIRFFMILIILKIDGRWLSHRVIVH", "protease stability score": 0.81},
      {"sequence": "DEDTKTAWRMLHLSHKAIETGDEHLIKHLFDPHVRIHIDGVDLHGREELLTHLRHWRMVVEDEVSKDSKSYGDKITLDGHVDLTFEYNGRRVRVIFDTRIIIVKFNGRWLIKTIHFE", "protease stability score": 0.512},
      {"sequence": "SEDHEATHLIVELLERALKTGNERLWKDLFDPNVRIDINGKYFHGREEYVHFFKEWRFHDSRVHVHEVRVNEHELHIHGEVESHVTYNGQHRNLRLETTLFVIKVNGRWLFRHIEVR", "protease stability score": 1.5},
      {"sequence": "SEDIEELRKVFEDWVRILRTGDEKSHKELMDPTYRNDQGEFHYHGMEDLEKFTRRYDHVNLIFRDMRLVNGVARVDGEIQLHQGDFKIDTHVIIYMLKIDGQWRIRSIEIR", "protease stability score": 2.08}
    ]}
  ]
}
